# Measurements reported in publication PMC10185304, “Structure of Anabaena flos-aquae gas vesicles revealed by cryo-ET” (Structure (London, England : 1993), 2023).
# B1: GvpA from Anabaena flos-aquae (Ana) gas vesicles (natural protein, UniProt P10397 1-71, looked up)
# chain: MAVEKTNSSSSLAEVIDRILDKGIVIDAWVRVSLVGIELLAIEARIVIASVETYLKYAEAVGLTQSAAVPA
# notes: Gas vesicle structural protein GvpA (~8 kDa), Anabaena flos-aquae (Dolichospermum flos-aquae strain 1403/13F); polymerised into the helical filament that forms the gas vesicle shell; Native protein as it stands in purified gas vesicles; also called Ana GvpA; major structural protein; source: endogenous, in gas vesicles isolated from Anabaena flos-aquae by buoyancy purification
# B2: GvpC from Anabaena flos-aquae (Ana) gas vesicles (natural protein, UniProt P09413 1-193, looked up)
# chain: MISLMAKIRQEHQSIAEKVAELSLETREFLSVTTAKRQEQAEKQAQELQAFYKDLQETSQQFLSETAQARIAQAEKQAQELLAFHKELQETSQQFLSATAQARIAQAEKQAQELLAFYQEVRETSQQFLSATAQARIAQAEKQAQELLAFHKELQETSQQFLSATADARTAQAKEQKESLLKFRQDLFVSIFG
# notes: Gas vesicle protein GvpC, Anabaena flos-aquae (Dolichospermum flos-aquae strain 1403/13F); five 33-residue repeats plus short N and C termini; in PDB 8GBS it is modelled only as a poly-Ala chain of one repeat's length; removed with 6 M urea to give stripped (AnaS) vesicles; also called Ana GvpC; accessory protein GvpC; source: endogenous, in native gas vesicles isolated from Anabaena flos-aquae …
# Columns and labels:
# Assay in all cases: cryo-EM structure; cryo-electron tomography with subtomogram averaging of the shell of native Ana gas vesicles (7.7 Å) and of urea-stripped AnaS gas vesicles (7.3 Å), 10 mM HEPES pH 7.5; GvpA homology model (from PDB 7R1C) and a poly-Ala helix for GvpC fitted as rigid bodies
# [1] = target: the molecule itself
# [2] = target: B2; details: both partners purified
# [3] = target: B1; details: both partners purified
binding result [2],stoichiometry N [3] [GvpC per GvpA],Binder,binding result [1]
binds,–,B1,binds
–,~0.05,B2,–
